One molecule from paper PMC4873337 can be followed below.

In this series the target is WT p45 Tcf1 (UniProt Q00417 1-419). Nature of the series: EMSA. In general terms: A gel shift assay detects complexes by their altered migration in electrophoresis.
WT p45 Tcf1, sequence (Q00417 whole entry): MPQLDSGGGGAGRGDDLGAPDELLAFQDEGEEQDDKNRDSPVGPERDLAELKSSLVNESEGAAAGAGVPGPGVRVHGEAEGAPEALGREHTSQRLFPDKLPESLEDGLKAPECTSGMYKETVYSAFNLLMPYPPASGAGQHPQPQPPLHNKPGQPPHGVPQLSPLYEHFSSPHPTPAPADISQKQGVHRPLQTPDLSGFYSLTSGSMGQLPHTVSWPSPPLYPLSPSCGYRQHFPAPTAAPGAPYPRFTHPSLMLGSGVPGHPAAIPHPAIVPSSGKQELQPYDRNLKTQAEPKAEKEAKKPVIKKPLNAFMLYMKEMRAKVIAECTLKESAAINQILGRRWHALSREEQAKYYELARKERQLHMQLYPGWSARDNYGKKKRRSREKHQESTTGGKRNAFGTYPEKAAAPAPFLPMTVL

B1: TOP probe (dsDNA)
DNA 1: GATCTAGGGCACCCTTTGAAGCTCT
DNA 2: AGAGCTTCAAAGGGTGCCCTAGATC
Turning to B1, the binding result was “binds”.
